Measurements reported in paper PMC4552428, “Distinct Actin and Lipid Binding Sites in Ysc84 Are Required during Early Stages of Yeast Endocytosis” (PLoS ONE, 2015).

Biological target: Rabbit skeletal muscle actin (rabbit, UniProt P68135 1-377)
Assay: MST; microscale thermophoresis of Ysc84-Nt with monomeric (G-) actin; conditions not shown (S1 File)
Conditions: both partners purified

Kd: 850 nM
B1: 6xHis tagged Ysc84-Nt (wild type, N-terminal YAB domain) (domain or fragment)
chain: MGINNPIPRSLKSETKKAAKVLRSFVKPNQVFGADQVIPPYVLKRAKGLAIITVLKAGFLFSGRAGSGVIVARLKDGTWSAPSAIAMAGAGAGGMVGVELTDFVFILNSEEAVRSFSEFGTITLGGNVSVSAGPLGRSAEAAASASTGGVSAVFAYSKSKGLFAGVSVEGSAILERREANRKFYGDNCTSKMILSGRVKVPPAADPLLRILESRAFNF
notes: The His tag was detected on this protein on PIP strips; no cleavage is described; also called Ysc84-Nt WT; wild-type Ysc84-Nt; source: E. coli BL21 DE3, purified (HisTrap HP nickel column)
